The record followed here is patent US20040208887A1.

In the assay the target is recombinant E2 (genotype 1a) (hepatitis C virus genotype 1a) (UniProt P26664). The experiment in a line: ELISA, E2 coated as negative control antigen; crude periplasmic Fab. For orientation: An ELISA detects its analyte on a solid surface through an enzyme-linked reagent.
Sequence of recombinant E2 (genotype 1a) (hepatitis C virus genotype 1a) (P26664 384-715 limits assumed): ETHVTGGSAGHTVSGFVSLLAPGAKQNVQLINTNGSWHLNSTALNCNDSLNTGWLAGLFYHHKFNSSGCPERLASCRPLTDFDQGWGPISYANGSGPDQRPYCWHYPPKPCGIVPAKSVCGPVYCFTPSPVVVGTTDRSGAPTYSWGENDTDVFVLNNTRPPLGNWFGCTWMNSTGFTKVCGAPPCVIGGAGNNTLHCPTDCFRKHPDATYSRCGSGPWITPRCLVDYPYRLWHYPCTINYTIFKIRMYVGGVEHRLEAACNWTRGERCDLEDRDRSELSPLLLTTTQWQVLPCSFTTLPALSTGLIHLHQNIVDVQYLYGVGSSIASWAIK

B1: Fab clone 4:6 (Fab, V domains shown)
VH: VQLLEQSGAEVKKPGASVKVSCKASGYTFTKYYLHWVRQAPGQGLEWMGFINPSGGSTSSAQKFQGRISMTRDTSTTTVYMEVNSVTSEDTAVYYCARVGRLGVGATGAFDLWGQGTMVTVSS
VL: AELTQSPSSLSASVGDRVTITCQASQDINYSLNWYQQKPGKPPKLLIYYASHSDTGVPSRFSGGGSGTRFTLTIYSLQPEDIATYYCQHFDHVPRYTFGPGTKVDLK
For B1, the OD405 nm came out at 0.08 OD405 nm.

B2: Fab clone 6a:5 (Fab, V domains shown)
VH: EVQLLESGPGLVKPSQTLSLTCAISGDNVSRKSAAWNWIRQSPSRGLEWLGRTYHMSKWYSVYATSLKSRININVDTSRNQFALQLRSVTPEDTAVYYCAREGPEWAVGGTYGMDVWGQGTTVTVSS
VL: AELTQSPDTLSLSPGERATLSCRASQSVNNNYLAWYQQKPGQAPRLLIYGASSRATGIPDRFSGSGSETDFTLTISRLEPEDFAVYYCQQYDSSRTFGQGTKVEIK
B2: the OD405 nm came out at 0.03 OD405 nm.
